From patent publication US20260258115A1 (MAPP BIOPHARMACEUTICAL, published 2026)

B1: ADI-19455 (antibody, V domains shown)
VH: EVQLVESGGGLVKPGGSLRLSCAASGFTFSSYSMNWVRQAPGKGLEWVSSISSSSSYIYYADSVKGRFTISRDNAKNSLYLQMNSLRAEDTAVYYCARSQSGSYYSSDYWGQGTLVTVSS
VL: QSVLTQPPSVSGAPGQRVTISCTGSSSNIGAGYDVHWYQQLPGTAPKLLIYGNSNRPSGVPDRFSGSKSGTSASLAITGLQAEDEADYYCQSYDSSLSGWVFGGGTKVTVL
notes: full-length IgG
B2: ADI-25496 (antibody, V domains shown)
VH: QVQLVQSGGGLVKPGGSLRLSCAASGFTFSSYSMNWVRQAPGKGLEWVSSISSSSSYIYYADSVKGRFTISRDNAKNSLYLQMNSLRAEDTAVYYCARVASEVWFFDLWGRGTLVTVSS
VL: QPVLTQPPSVSGAPGQRVTISCTGSSSNIGAGYDVHWYQQLPGTAPKLLIYGNSNRPSGVPDRFSGSKSGTSASLAITGLQAEDEADYYCQSYDSSLSGYVFGTGTKLTVL
notes: full-length IgG
B3: ADI-25595 (antibody, V domains shown)
VH: EVQLVESGGGLVKPGGSLRLSCAASGFTFSSYSMNWVRQAPGKGLEWVSSISSSSSYIYYADSVKGRFTISRDNAKNSLYLQMNSLRAEDTAVYYCARYQSSSWYYFDYWGQGTLVTVSS
VL: SYVLTQPPSVSGAPGQRVTISCTGSSSNIGAGYDVHWYQQLPGTAPKLLIYGNSNRPSGVPDRFSGSKSGTSASLAITGLQAEDEADYYCQSYDSSLSGVVFGGGTKLTVL
notes: full-length IgG; also called Ab 464
B4: ADI-21013 (antibody, V domains shown)
VH: QVQLQESGPGVVKPSETLSLTCTVSGGSISNTHSYWGWIRQSPGKGLEWIGSIYYTGSTYYNPSFRSRVTLSVDTSKNQFSLKLSSVTAADTAVYYCAAPDYFVLTDYKSTFDYWGRGALVTVSS
VL: DIVMTQSPGTLSLSPGGRATLSCRASQSVGSSSLAWYQQKPGQAPRLLIYGASSRAAGIPDRFSGSGSGTDFTLTINRLEPEDFAMYYCQQYGSSPLTFGGGTKVEIK
B5: ADI-21028 (antibody, V domains shown)
VH: EVQLVESGGALVKPGGSLRLSCVASGFTFSDYYMHWVRQAPGKGLEWVSYISSTSSFTNYADSVKGRFIISRDNAKNSLYLQLNSLRAEDTAVYYCARDESSGWQTRRHFGMDVWGQGTLVTVSS
VL: EIVMTQSPSTLSASVGDRVTITCRASQSLNTWLAWYQHKPGKAPKLLISTASSLQSGVPSRFSASGSGTEFTLTISSLQPDDFATYYCQQFRGTFGPGTKVEIK
B6: ADI-20998 (antibody, V domains shown)
VH: QVQLVQSGGGVVQPGRSLRLSCAASGFTLSTYGMHWVRQAPGKGLEWVAVIYYDESNKFYADSVQGRFTISRDDSKNTLFLQMNSLRAEDTAVYYCARESRPRGYSYSDFDSWGQGTLVTVSS
VL: QPGLTQPRSVSGSPGQSVTISCTGTSSDVGTFNYVSWYQQHPGKAPKLMIYDVNQRPSGVPDRFSGSKSGNTASLTISGLQAEDEADYYCCAYAGYYSFGGGTKLTVL
B7: ADI-14601 (antibody, V domains shown)
VH: EVQLLESGGGLVQPGGSLRLSCAASGFTFSSYAMNWVRQAPGKGLEWVSTISGSGSSTYYADSVEGRFTISRDNSKNTLYLQMNSLRAEDTAIYYCAKEPRDMYIQQWLDSWGQGTLVTVSS
VL: GIRLTQSPSSVSASVGDRVIITCRASQGIRSWLAWYQQKPGKAPKLLIYAASRLQSGVPSRFSGSGSETDFTLTISSLQPEDFASYYCQQANSFPLTFGGGTKVEIK
B8: ADI-14588 (antibody, V domains shown)
VH: QVQLVQSGAEVKKPGASVKVSCKVSGDTLTELSIHWVRQAPGKGHEWMGYFDHEDGEIMYAQKFQGRVTMTGDTSTDTAYMELSSLRSEDTAVYYCATVAAAGQFDYWGQGTLVTVSS
VL: DIQLTQSPSSLSASVGDRVTITCRARQSISTYLNWYQQKPGKAPKLLIYAASSLQSGVPSRFSGSGSGTDFTLTISSLQPEDFATYYCQQSYSSPYTFGQGTKVDIK
B9: ADI-21049 (antibody, V domains shown)
VH: EVQLVESGGGLVKPGGSLRLSCSASGFAFSSYSMNWVRQAPGKGLEWVSSISASSSYIFYADSVKGRFTISRDNAKNSLYLQMNSLRAEDTAFYYCARALSPGYGDYRDYWGQGTLVTVSS
VL: QSVVTQPPSVSGAPGQRVTISCTGSSSNIGAGYDVHWYQQLPGAAPKLLIYGNNNRPSGVPDRFSGSKSGTSASLAITGLQAEDEADFYCQSYDHNLSVVFGGGTKLTVL
B10: ADI-21058 (antibody, V domains shown)
VH: QVQLQESGPGLVKPSETLSLTCTVSGGSISGTTYYWAWIRQPPGKGLEWIGTIFYSGSTYYNPSLQSRVTTSVDASKNQMSLRLSSVTAADTAMYYCARHTSIYDNLTGFYSHLTGVLDMWGQGTMVTVSS
VL: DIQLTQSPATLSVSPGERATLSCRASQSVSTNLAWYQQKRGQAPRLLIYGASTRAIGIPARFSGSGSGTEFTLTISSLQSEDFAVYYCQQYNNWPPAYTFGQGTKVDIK
B11: ADI-21015 (antibody, V domains shown)
VH: QVQLVQSGAEVKKPGASVRVSCKVPGNTLSDLSMHWVRHTPGEGLEWMGSFDPEYGETIPAQRFQGRVTMTEDTSTDTAYMELTSLRFEDTAVYYCAAPHASGALQHWGQGTLVTVSS
VL: DIVMTQSPSSLSASVGDRVTITCRASQIISAYLNWYQQKAGKAPKLLIYAASSLQSGVPSRFSGSGSGTDFTLTISSLQPEDFATYYCQQTYITPFTFGQGTKLEIK
B12: ADI-20978 (antibody, V domains shown)
VH: EVQLVESGAEVKKPGASVKVSCKASGYTFGNYGISWVRQAPGQGLEWMGWISAYNGNSNYAQKFQGRVTMTTDTSASTAYMEVRSLRSDDTAVYYCARDVPVTAARLLDYWGQGTLVTVSS
VL: DIVLTQTPLSLPVTLGQPASISCRSSQSLVYSDGNTYLSWFQQRPGQSPRRLIYKVSNRDSGVPDRFSGSGSGTDFTLKISRVEAEDVGVYYCMQATDWLGYTFGQGTKLEIK
B13: ADI-14591 (antibody, V domains shown)
VH: QVQLVQSGAEVKKPGESLRISCTGSGYTFTNYWISWVRQMPGKGLEWMGRIDPTDSYTNYSPSFQGHVTISADKSISTAYLQSSSLKASDTATYYCARHRRLVPAAMSRGYYGMDVWGQGTTVTVSS
VL: EIVMTQSPSSLSASVGDRATITCRASQSISSYLNWYQQKPGKAPKLLIYAASNLQSGAPSRFSGSGSGTDFTLTISSLQPEDFATYFCQQTYSTPYTFGQGTKVEIK
notes: also called Ab 120
B14: ADI-20987 (antibody, V domains shown)
VH: QVQLVQSGGGVVHPGRSLRLSCAASGFSFSDYGMHWVRQAPGKGLEWVAVIWYDGINKYYADSVKGRFAISRDNSKNTLYLQMNSLRAGDTAVYYCARGGIAAAQRYFDYWGQGTLVTVSS
VL: ETTLTQSPGTLSLSPGERATLSCRASQTVSSSNLAWYQQKPGQAPRLLIYGASSRATGIPDRFSGSGSGTDFTLTISRLEPEDFAVYYCQQSGTSFGQGTKVDIK
B15: ADI-14603 (antibody, V domains shown)
VH: QVQLVQSGAEVKKPGESLKISCKGSGYTFTNYWIGWVRQMPGKGLEWMGIIYPGDSDTRYSPSFQGQVTISADKSITTAYLQWRVLKASDTAMYYCATMRGSSSHFHHWGQGTLVTVSS
VL: DIQVTQSPSSLSASVGDRVTITCRAGQGIGNYLAWYQQKPGKVPKVLIYAASTLQSGVPSRFSGSGSGTEFTLTISSLQPEDVATYYCQKYNNAPYAFGQGTRLEIK
notes: also called Ab 131
B16: ADI-21005 (antibody, V domains shown)
VH: EVQLVESGGAVVQPGGSLRLSCVASGLAFDEYTMHWVRQSSAKGLEWISLISWNGGITYYADSVKGRFTISRDNSKNSLYLQMNSLRTEDTATYFCARLGYGSGSDYGDDYWGQGTLVTVSS
VL: ETTLTQSPGTLSLSPGERATLSCRASQSVSNNYLAWYQQKPGQAPRLLIHGASTRVTGIPARFSGSGSGTDFTLTISRLEPEDFAVYYCHQYHSSPRTFGQGTKVDIK
B17: ADI-20966 (antibody, V domains shown)
VH: EVQLLESGGGLGKPGGSLRLSCAASGFKLSSYYMHWVRQAPGKGPEWVSSISASSSYINYADSVRGRFTVSRDNAKNSLFLQMNSLRVDDTAIYYCARGAPLTNFGMVLDSWGQGTLVTVSS
VL: QSVLTQPPSVSGAPGQRVTISCTGSGSNIGAGYDVHWYQQVPGRVPKLLIYANNNRPSGVPDRFSGSKSGTSASLAITGLQADDEADYYCQSYDRSLNVVFGGGTKLTVL
B18: ADI-20984 (antibody, V domains shown)
VH: EVQLLETGAEVKKPGASVKVSCHVSGYGLTDLSMHWVRQAPGKRLQWMGSFDPQYGETIDTQNFQGRVTMTVDTSTATLYMQLSGLRSEDTAMYYCATPQSTGALDNWGQGTLVTVSS
VL: DIRVTQSPSSLSASVGDRVTITCRASQSISSYLSWYQQKPGKAPRLVIFAASNLQSGVPSRFSGTGSSRFSDSGSWTDFTLTISSLQPEDFAIYYCQQTYITPFTFGQGTKVDIK
B19: ADI-14587 (antibody, V domains shown)
VH: EVQLLESGGGLVKPGGSLRLSCAASGFTLTSYSMNWVRQAPGKGLEWVSSISSSSSYIHYADSVKGRFTISRDNAKNSLYLQMNSLRAEDTAVYYCAGSSLYPPFFDYWGQGTLVTVSS
VL: QSVVTQPPSVSGAPGQRVTISCTGSSSNLGAGYDVHWYQQLPGTAPKLLIYGNNNRPSGVPDRFSGSKSGTSASLAITGLQAEDEADYYCQSYDSSLSSVVFGGGTKLTVL
B20: ADI-21018 (antibody, V domains shown)
VH: EVQLLESGGGLVKPGGSLRLSCAGSGFTLSSYGMNWVRQAPGQGLEWISSISSSSSYINYADSVKGRFTISRDNAQNSLYLQLNSLRAEDTAVYYCARGGLGYDYGLGSYTYADYWGQGTLVTVSS
VL: QSVVTQPPSVSGAPGQRVTISCTGSSSNTGAGYDIHWYQQLPGTGPKLLIYGNKNRPSGVPDRFSGSKSGTSASLAITGLQAEDEADYYCQSYDSSLSGWVFGGGTKVTVL
B21: ADI-21057 (antibody, V domains shown)
VH: QVQLVQSGAEVKKPGESLKISCKASGYSLSNNWIAWVRQMPGKGLEWMGIVYLGDSDARYSPSFQGQVTFSADKSISTAYLQWSSLQASDTAMYFCARHHGDLVVTSDSRYFYGLDVWGQGTTVTVSS
VL: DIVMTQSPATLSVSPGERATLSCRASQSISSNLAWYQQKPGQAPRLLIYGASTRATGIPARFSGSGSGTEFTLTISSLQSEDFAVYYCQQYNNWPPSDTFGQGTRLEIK
B22: ADI-20980 (antibody, V domains shown)
VH: QVQLQESGPGLVKPSQTLSLTCSVSGGSVSSGDYYWTWIRQPAGKGLEWIGRIYNSGGTDYSPSLKSRVTISVDTSKNQFSLKLSSVTAADTAVYYCARGRGYYESPWGQGTLVTVSS
VL: EIVLTQSPATLSLSPGERATLSCRASQSVGIYIGWYQQKPGQAPRLLMYDASNRATGIPDRFSGSGSGTDFSLTISSLEPEDFAVYYCQLRSKWLTFGPGTKVEIK

These binders were tested against T1, RSV postfusion F (postF), subtype A (respiratory syncytial virus subtype A, UniProt P03420 26-513) (assay: BLI).
T1 construct: also called Postfusion subtype A; F deltaFP

B1: no binding.
B2: no binding.
B3: no binding.

What follows are binders tested against RSV prefusion F (preF), subtype B (respiratory syncytial virus, subtype B) (assay: BLI, IgG).

In order of rising Kd:
1. B12  0.319 nM
2. B20  0.366 nM
3. B10  0.515 nM
4. B22  0.542 nM
5. B13  0.554 nM
6. B19  0.833 nM
7. B21  0.86 nM
8. B17  0.862 nM
9. B9  1.27 nM
10. B6  1.35 nM
11. B8  1.48 nM
12. B4  1.79 nM
13. B7  1.96 nM
14. B5  3.33 nM
15. B16  7.7 nM
16. B18  20.2 nM
17. B15  30.5 nM
18. B11  32.4 nM
19. B14  35.6 nM
